Laboratory results from IntAct's records for PubMed 16407074.

B1: Mortality factor 4-like protein 1 (Homo sapiens), Q9UBU8-2 (parent)
chain: MAPKQDPKPKFQEGERVLCFHGPLLYEAKCVKVAIKDKQVKYFIHYSGWNKNWDEWVPESRVLKYVDTNLQKQRELQKANQEQYAEGKMRGAAPGKKTSGLQQKNVEVKTKKNKQKTPGNGDGGSTSETPQPPRKKRARVDPTVENEETFMNRVEVKVKIPEELKPWLVDDWDLITRQKQLFYLPAKKNVDSILEDYANYKKSRGNTDNKEYAVNEVVAGIKEYFNVMLGTQLLYKFERPQYAEILADHPDAPMSQVYGAPHLLRLFVRIGAMLAYTPLDEKSLALLLNYLHDFLKYLAKNSATLFSASDYEVAPPEYHRKAV

Variants of: B1
Details: with mrgbp_human MRGBP

With L291A as the variant, how does the “effect of a mutation on the interaction” value read?
The value was “disrupting interaction strength”.

Variants of: B1
Details: with mr1l1_human MRFAP1L1, Q96HT8
Sequence of mr1l1_human MRFAP1L1, Q96HT8 (Q96HT8 whole entry): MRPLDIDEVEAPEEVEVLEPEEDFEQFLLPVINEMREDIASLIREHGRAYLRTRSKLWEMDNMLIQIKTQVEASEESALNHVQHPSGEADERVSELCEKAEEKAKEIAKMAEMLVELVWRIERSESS

How did the “effect of a mutation on the interaction” value turn out when V169E was run?
The value was “disrupting interaction”.
